Assay results as given in the domain aggregation screens of Martell et al. (2025).

assay: soluble fraction after stress (log2 fold change); higher = more stays soluble; pooled small domains, quantitative proteomics; settings: stress: pH 4
Outline: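 Custom libraries of small protein domains were pooled and exposed to pH 4. High-throughput quantitative proteomics then measured the log2 fold change in the amount of each domain still soluble, with higher values meaning more stayed soluble. This soluble-fraction fold change stands for aggregation propensity.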

Sequence | soluble fraction (log2)
HMSETTSRVLQLLGLLQARRVWTGQELADRLGVTGRSVRRDIERLRDLGYPVHASKGRDGGYQLGA | -0.222
HMSEYILATNDGEFLRITSYSKEEGGMLVWEKTSSIVSAEHKVIPYSQIINIKDRNGDVVWDKD | -0.0816
HMSEYNPGIYRVTDPALNIRTGPGVEYPVVGVIKDQGSYTITEIRNKSWGRLLSGAGSTAIKHIVFT | -0.173
HMSFEITGDELILRFVKDKGGATTEQIRKHWEASNRGGKSDNNLTNLVKSGKLLRSKDPNGPGSLYTAS | -0.749
HMSFESMGLTPRQADVLTLLLQGKSNKDIARRLVLSVETVKDHVQAVLRALGVSSRTQAVLAVGQMTQQ | -0.37
HMSFGYFQLRAKDPQKLKSVLEKIPQIQSIKEEKGDLIGYLNADMEAEELSQKLAAAKIFVTHMAKKK | 0.216
HMSFISRMVVAVEDIALSTRPNSTPSGDKYVSKGTVLLMEKRENDWVEVRQPSSPLSGWAPKTSLLSV | -0.426
HMSFNLSETKKLILEEIQKGVSSVTQIAATAGISKGMTYNHLRELKLMGYIADGDSGYVITDAGKIAS | -0.323
HMSFRYLHVKRQLMSLIGTMNAHERLPSRTDLSETFQVARTTIERAISELIGEGWLYARDGSGTYVAER | -0.919
HMSFSTHHEYYIYNLAVDMRKGYDGLSGLVVNELGRQPWDGSVYVFFNTMRDKVKLLVWDTDGYVIYSKR | -0.505
HMSFTDLILKSANAIDEMGGIWENGKQILGEKAIAIHEEIVDNGLNPDKDGFYKLANGQMIQYG | -0.85
HMSFVEVTVSELKNYVNSHARIKLKSGKEFKGFILDANEEGVIIKVQLRGGTAESTISYNRIDRAAVF | -1.11
HMSGAERAAALLVALGPEVASEIMKFLDDESIQKLASEIAKIEVLSPQEKEDLIGQFLLELKKT | -0.982
HMSGAWEVGLLRQFTDWMGTQYNAYAGRNFDAITVAQVAEKNPELLTPFVESFFKERVEPALAAG | -0.589
HMSGEDYLERILMLKEKHGNVRAIDIANSMNFSKPSVSIALHKLSENGYVVIQNNGAIELTEKGLEVAT | -0.0506
HMSGEIPFPPAFKPSADHIAIASEKGINIETELLNFRDYHQARGTKLIDWNSAFRVWLRNAR | -0.869
HMSGEITVPNLIGVEAIQAKTLLIQAGFLIKEFYDLDSTQPAGVVIRQAPEAGTTQTIGKSVTITINKQ | 0.106
HMSGENAVLTEGTMVTVRRGGETITATARKETVKQFLSRMDIIPGSREMVGIELMENSVMLTISD | -1.02
HMSGFPTDAQIVREIRNILPTLENPTPRMVRKALENTFEVDMGESKTKKYINNIIITEYEKWSSVQSIRE | -0.804
HMSGGNTSAFKGKLNYEYRGNDTIITGSTYPVKELIKKAGGRWDPGSSAWIIKGRHVSDNEIF | -0.317
HMSGQKDVPDLYGMTVKQAKKEVEAAGFKLKEGKEVYSNDYSKGQIAEQDPESGSKAKKGSSITVHVSKG | 0.22
HMSGRIWTDNYGRTIEADVIKVNINRTVLLEFTDKKTKTVSFDTFISKDIQYLEYLLTRRNRGKL | -1.14
HMSGRVPTADDIAVGMKVYVPRLGGTGTVVTEPVRDKVVIQVGSLRLHAEVAELLLPDEHGRIQVPR | -0.127

Sequence | soluble fraction (log2)
HMSGTGSYVALLRDPQGNVGKVVVKGSKGEQVLSQPQQAARLDGATPSYEVTGRQIAEDFGRALAV | -0.198
HMSGTYIATVEAGSLDIYKSMTSNETIGKASRGDVFQILEDMGSGYARVSYNDVEGYMSIKTGDASIEEL | -1.83
HMSGVSESIEKKIQYLLLEKPLPLHDLIEAIEIGKEEDRLKVLRSLMDSDTVKIEDDLYHWNA | -0.393
HMSGYSTLFTRMSREDAQAVVSLLQDDGIEYRYNDDTGTVQVPSATVDQTRAKLVSAGYPRS | -0.303
HMSHANAALTPRARLRLAKLIVEEHWPVATAAKMFMVSPPTARKWATRFRAEGPAGMADRSSRP | 0.123
HMSHFRMLPSITEADAFLKSRSLPAGLEVREQVDAFLAQARQTLALAQEAPWLSKQEVLETLADEFVQTS | -1.25
HMSHFSERLKSLRQQSSITQAKLADDLNVTKSLISMYESGQRLPSFEMLETIADYFNVPLSSLV | -0.51
HMSHGFFTLQSDDLNLLRTVLEGHSSIGDIKIEGIQLVAYLKEPLNGAELNKILFEKGINLSYLVHRK | -1.52
HMSHGFVHLKGAVQHPGIYPVKENTRWDEVVKAAGGLTAAADIQQVNLAKVASDQESLYVPEKGET | 0.161
HMSHGSIYFSGKTGLKGSVDINGTVNSINKKIFLKPGNYNFLIKADGYKNLKGSFQISKGDKKFVELVLIP | -0.0804
HMSHGYVELKAENNDALISALENHTWFENIKLDPETNLVKAILTKPIEAENLNKMLFEKGIILSHLVKRK | -0.286
HMSHYDILEVDPKASATEIKQSFRKKSLQYHPDRNKSSDAHEYMTKITEAYNILGDKDKRRHYDMELKL | 0.172
HMSHYEYKVGDRVNLLDYDDFGILYKEKDNFYNVVVYYNGEFVEVNVKRITLEVAAKELYPEGYDLSTLFV | -2.41
HMSIASASVKEKIRDIVSSEPPQKPFSDAKIAEILAEDGIAIARRTVAKYREEIGIPTKSLRKR | 0.292
HMSIDNALLTLIGKTGTAQTVLRPSGKVVIGDEVYDAVTAGEFIDKGSAIVVTRVEATQLYVEASEA | -0.343
HMSIELEISADGNNYRVSGLSDGEDVRVYSVSGVQVFSGKAQGGEVVIPADNWNKGIYVISAGGSSVKVL | -0.312
HMSIGLEDLIEQKGVADTDLRPSGWINVGNQRIFVVTEGSYIDQNDNVIILSVDGNRVVVRKI | -0.941
HMSIGLEELVGSHGEAITDLRPAGQVSIAARRISAVSEGDFINKGDSVEVLSVEGYRVMVRKLET | -0.4
HMSIITLFQEINAAVAEATGGRVPESVVQNFILGKDVVIPEDVKEIIISKLKAFATDIEGMLEESGFD | -2.59
HMSILDEAEFKKIESALLDFITNNIFTVKELLQASRGIKQDKFWKVFQFLQSERKVVVNELGYIEL | -0.513
HMSILSIGLERGMKKGVAWGIAKSILDILEETGPVSEKTREMIVTETDAERLSAWVKKAARSNSEEDFLSK | -1.21
HMSILSRREHEIMQWVKGGKTNIEIAQILGISARTVRNHLQNVFRKLDVINRAQAVFEVERRR | -0.639
HMSIMNEQIREILNQQVTKTSKIQQLLLLGLTRRQVADLVTNGNYGFVQNVYRNMLDAGIFTP | -0.487

Sequence | soluble fraction (log2)
HMSIMNLSEKIVVLRKSNGMSQEELAEKLYVSRQAVSRWEMGTAVPDSTNILQLGKLFHVTTDYLLNDEYE | -0.232
HMSINQIADKGYITRLIDNNANIKDVLYYDASSRILAIEDPKYMFYLKNTDWNQFAKEMGFKLE | -0.556
HMSINTLEVHSLKALENLAESPLLISFSYENEEYNYRLASSDVSLLKKISSNYSDDSDIKGLRFIS | -0.316
HMSIQQEATGNRIRELLLNNGYTVKDIQEVMGFENPQAVYKWLSGKSLPNLDNLLILSKVLHTSIEDILV | -1.09
HMSISSIDFENLKSDELSDAQITQIYRQAQEQGLSIDELSSLAIARGMSPTEVAKLRSRFNSIP | 0.00293
HMSIVVPDLRGKTLEEARAILKEADLDFEINDSTFSKTARPGTIRDVVPSPGSRVKAGRILFISINGF | -0.0618
HMSIYQYFNISEINSIDDLKKQYFKLAKKYHPDAGGDKVSFQELQNEYEQLTKKILSGAELNADELKTE | -0.163
HMSKASLFFLFNHKDELYIVDNNHVQDVPKPRELIRRFSTIEQIREHALHLGLPIANDTARE | -0.0573
HMSKEGLASLLEDINGLGAIRRKTLIDHFGSVAKIRGARPEEIAALPGMGRKIAEHILASLRED | 0.418
HMSKEKQILQLLQHGYSQRRIADTLSVSRNTVAKVAKAAIEHPVSSDSLDSIDELELHQKLFPEEVLI | -0.184
HMSKGKNEVIAYLKAHNDHRLTVAEILDGLKEEGISINRSTIYRNLDKLVENGDILAFKGKDSESAFYQYS | -0.643
HMSKHLWNKVLPKVTTANITNLINQAIRKGEWRMDNKGVVHIIWRYRGKIIEVTGYLKDKVFNVGNAWVR | -0.134
HMSKITNALLMMKLLSNGKVYSVKELSEELGVTERMVRNYKEQLEMSGYIIESFKGPGGGYFINKN | 0.207
HMSKKAIVINLLKRPDGASLKDIMQATYWQAHSVRGFISGSLTKKMGLNVESFKRPDGERAYRIN | 0.22
HMSKLIDQELINFFKNQIESKSFRYGVSIEDSYEEIKSNQIKFYGEQEDKLKAIDNAFIELKRERAGIR | -0.293
HMSKNDLAGDEADVYKLLSVETGKPISDLVNRLPFGKSKTREILNTLAEKGFVYISGSGRGTKYHR | -0.403
HMSKNTFIGNIDDKELYVGSGRYGPFMLYDGKFTNITRYLSDESKELTDITIDDYSKIVNNARPK | -1.5
HMSKNVTMPNLVGYSMRQAKAELLSRGLHLGKLIYVNDIATNNVISQLYRNAEIEPGVKIESESYVDLVVG | -0.631
HMSKPTLTDELLTLDLFEEIIKAKENAKGANKRFSLVGFLESKYIVDQEMLPKVNVKVTEYYNLTREN | -1.8
HMSKPVVWIVGDSTVSAFTDNYYYPRYGWGTQIDKYLDGTFEVKNIALSGRSSTSYTADKEYGELIAG | 0.0502
HMSKRIFPNEFQRNSPDAMVMLDKMNLSRINVDPLTKSLTLNGGGSVKTLLNGREVSAVEIAALSP | 0.156
HMSKSENLYSAARELIPGGVNSPVRAFTGVGGTPLFIEKADGAYLYDVDGKAYIDYVGSWGPMVLGHNHP | -0.279
HMSKSIEEIYDEAIRSLANEEYDSAKKLFSYLIDNFSDPEKLPLSLFWLGEIEFSSSNFDQSKIHYIE | -1
